*1 amine or outer side, *2 acyl side, *3 side chain or, on linkers, in order; H or OH if unused. Bridges are numbered along the chain shown (N, C = ends). Primed or numbered codes have the meaning given here. [ ]: non-standard residue; d: D form. 2Lut = 2,6-lutidylidene bridge between two thiols; Trp(5-Cl) = N[C@@H](Cc1c[nH]c2ccc(Cl)cc12)C(=O)O; Pyridine(2,6-diCH2) = c1cc(C[*:1])nc(C[*:2])c1; Trp(7-F) = N[C@@H](Cc1c[nH]c2c(F)cccc12)C(=O)O; 2Lut″ = 2,6-lutidylidene linking two thiols; Thz(5,5-Me2) = CC1(C)SCN[C@@H]1C(=O)O; Ser(ΨH,HPro) = O=C(O)[C@@H]1COCN1; Hyp = O=C(O)[C@@H]1C[C@@H](O)CN1; NMeE = CN[C@@H](CCC(=O)O)C(=O)O; Thz = O=C(O)[C@@H]1CSCN1; Thp = NC1(C(=O)O)CCOCC1
B1: Ac-Asp-Hyw-5Clw-Hyp-Glu-leu-[Cys(2Lut)-Thp-Leu-Ile-Cys]-NH2 (peptide)
peptide: Ac-DX[Trp(5-Cl)][Hyp]E[dL]C[Thp]LIC-NH2
modifications: linker 7-11 via Pyridine(2,6-diCH2); not fully specified (residue 2); printed as Ac-Asp-Hyw-5Clw-Hyp-Glu-leu-[Cys(2Lut)-Thp-Leu-Ile-Cys]-NH2

Biological target: human Gastric Inhibitory Peptide Receptor (GIPR) (human) (UniProt P48546)
Experiment: FACS competition vs biotinylated GIP-057 on CHO-K1-hGIPR cells; category A: pIC50 >8.0

human Gastric Inhibitory Peptide Receptor (GIPR) (human), sequence (P48546 22-466 limits assumed): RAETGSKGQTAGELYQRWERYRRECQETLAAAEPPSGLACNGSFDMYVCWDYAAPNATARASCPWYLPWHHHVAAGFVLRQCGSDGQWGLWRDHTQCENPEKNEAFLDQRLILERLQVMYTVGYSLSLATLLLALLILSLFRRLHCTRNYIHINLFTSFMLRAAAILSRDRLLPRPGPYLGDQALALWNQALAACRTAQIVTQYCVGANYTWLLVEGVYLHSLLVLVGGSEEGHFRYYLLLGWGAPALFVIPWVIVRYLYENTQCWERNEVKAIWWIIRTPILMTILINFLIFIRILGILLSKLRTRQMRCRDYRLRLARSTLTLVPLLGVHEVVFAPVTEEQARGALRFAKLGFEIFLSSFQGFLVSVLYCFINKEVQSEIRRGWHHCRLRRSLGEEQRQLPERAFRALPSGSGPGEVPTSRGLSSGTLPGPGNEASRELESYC

pIC50	Binder
> 8 pic50	{HO‑Glutar}-W[Trp(5-Cl)][Hyp]E[dL]C[Thp]LIC-NH2 (linker 6-10 via 2Lut) [HO-Glutar-Trp-5Clw-Hyp-Glu-leu-[Cys(2Lut)-Thp-Leu-Ile-Cys]-NH2]
> 8 pic50	Ac-DW[Trp(5-Cl)][Thz(5,5-Me2)]E[dL]C[Thp]LIC-NH2 (linker 7-11 via Pyridine(2,6-diCH2)) [Ac-Asp-Trp-5Clw-Dtc-Glu-leu-[Cys(2Lut)-Thp-Leu-Ile-Cys]-NH2]
> 8 pic50	Ac-DW[Trp(5-Cl)][Ser(ΨH,HPro)]E[dL]C[Thp]LIC-NH2 (linker 7-11 via Pyridine(2,6-diCH2)) [Ac-Asp-Trp-5Clw-Oxa-Glu-leu-[Cys(2Lut)-Thp-Leu-Ile-Cys]-NH2]
> 8 pic50	Ac-DW[Trp(5-Cl)][Hyp][NMeE]LC[Thp]LIC-NH2 (linker 7-11 via Pyridine(2,6-diCH2)) [Ac-Asp-Trp-5Clw-Hyp-Nme-Leu-[Cys(2Lut)-Thp-Leu-Ile-Cys]-NH2]
> 8 pic50	B1
> 8 pic50	Ac-D[Trp(7-F)][Trp(5-Cl)][Hyp]E[dL]C[Thp]LIC-NH2 (linker 7-11 via Pyridine(2,6-diCH2)) [Ac-Asp-7Fw-5Clw-Hyp-Glu-leu-[Cys(2Lut)-Thp-Leu-Ile-Cys]-NH2]
> 8 pic50	Ac-DW[Trp(5-Cl)][Thz]E[dL]C[Thp]LIC-NH2 (linker 7-11 via Pyridine(2,6-diCH2)) [Ac-Asp-Trp-5Clw-Eaz-Glu-leu-[Cys(2Lut)-Thp-Leu-Ile-Cys]-NH2]
> 8 pic50	Ac-DW[Trp(5-Cl)][Hyp][dE]LC[Thp]LIC-NH2 (linker 7-11 via Pyridine(2,6-diCH2)) [Ac-Asp-Trp-5Clw-Hyp-glu-Leu-[Cys(2Lut)-Thp-Leu-Ile-Cys]-NH2]
> 8 pic50	Ac-DF[Trp(5-Cl)][Hyp]E[dL]C[Thp]LIC-NH2 (linker 7-11 via Pyridine(2,6-diCH2)) [Ac-Asp-Phe-5Clw-Hyp-Glu-leu-[Cys(2Lut)-Thp-Leu-Ile-Cys]-NH2]
> 8 pic50	Ac-D[Phe(2,3-Cl2)][Trp(5-Cl)][Hyp]E[dL]C[Thp]LIC-NH2 (linker 7-11 via Pyridine(2,6-diCH2)) [Ac-Asp-Egp-5Clw-Hyp-Glu-leu-[Cys(2Lut)-Thp-Leu-Ile-Cys]-NH2]
> 8 pic50	Ac-DW[Trp(7-F)][Hyp]E[dL]C[Thp]LIC-NH2 (linker 7-11 via 2Lut″) [Ac-Asp-Trp-7Fw-Hyp-Glu-leu-[Cys(2Lut)-Thp-Leu-Ile-Cys]-NH2]

From US20250296971A1, “GASTRIC INHIBITORY PEPTIDE RECEPTOR LIGANDS” (priority 2021, published 2025)
